Experimental data: article PMC10726160

Molecular target: GW182 (TNRC6A), short isoform (mouse (endogenous in OT-I CD8+ T cells))
Test: co-IP; anti-GW182 antibody on Protein G Dynabeads; lysates of naive (d0) and d6 activated OT-I CD8+ T cells, 2 x 10^7 cells per IP; bound and unbound fractions blotted with Ago2 and GW182 antibodies

Substance: Argonaute 2 (Ago2) (from UniProt Q8CJG0 1-860) (natural protein)
- percent of Ago2 associated with immunoprecipitated GW182 (d6): 50%
